According to paper PMC5282554, “The intervening domain from MeCP2 enhances the DNA affinity of the methyl binding domain and provides an independent DNA interaction site”:

Assays:
Settings in all cases: protein: recombinant; tags: His-tag removed (PreScission); blunt
MeCP2 NTD-MBD-ID [1] = molecular target: T1, MeCP2 NTD-MBD-ID (UniProt P51608 1-206); experiment: ITC; pH 7; MBD site of two-site model; ITC: Tris 50 mM, pH 7, 20 °C (also 15 and 17.5 °C; Pipes or phosphate 50 mM, pH 7), no added NaCl unless stated; protein 3-5 uM in cell, dsDNA 50 uM titrant
MeCP2 NTD-MBD-ID [2] = molecular target: T1, MeCP2 NTD-MBD-ID; experiment: ITC; pH 7; ID site of two-site model; ITC: Tris 50 mM, pH 7, 20 °C (also 15 and 17.5 °C; Pipes or phosphate 50 mM, pH 7), no added NaCl unless stated; protein 3-5 uM in cell, dsDNA 50 uM titrant
MeCP2 MBD = MeCP2 MBD (UniProt P51608 78-162); experiment: ITC; pH 7; ITC: Tris 50 mM, pH 7, 20 °C (also 15 and 17.5 °C; Pipes or phosphate 50 mM, pH 7), no added NaCl unless stated; protein 3-5 uM in cell, dsDNA 50 uM titrant
MeCP2 NTD-MBD = MeCP2 NTD-MBD (UniProt P51608 1-162); experiment: as above

Binder | Kd (MeCP2 NTD-MBD-ID [1]) [nM] | Kd (MeCP2 NTD-MBD-ID [2]) [nM] | Kd (MeCP2 MBD) [nM] | Kd (MeCP2 NTD-MBD) [nM]
BDNF promoter IV 45 bp unmethylated (dsDNA) DNA 1: GCCATGCCCTGGAACGGAACTCTCCTAATAAAAGATGTATCATTT DNA 2: AAATGATACATCTTTTATTAGGAGAGTTCCGTTCCAGGGCATGGC | 1.9 | 250 | 450 | 210
BDNF promoter IV 45 bp mCpG (dsDNA, 5-methylcytosine at C15 of strand 1 and C30 of strand 2 (symmetric mCpG)) DNA 1: GCCATGCCCTGGAACGGAACTCTCCTAATAAAAGATGTATCATTT DNA 2: AAATGATACATCTTTTATTAGGAGAGTTCCGTTCCAGGGCATGGC | 0.56 | 62 | 240 | 90
